Data on three variants can be found in PMC6706441, “B1 oligomerization regulates PML nuclear body biogenesis and leukemogenesis” (Nature Communications, 2019).

B1: full-length PML isoform IV, wild type (mammalian two-hybrid fusions) [human (by the printed UniProt code P29590-5)] / full-length PML isoform IV, wild type (mammalian two-hybrid fusions) [human (by the printed UniProt code … (parent)
chain 1: MEPAPARSPRPQQDPARPQEPTMPPPETPSEGRQPSPSPSPTERAPASEEEFQFLRCQQCQAEAKCPKLLPCLHTLCSGCLEASGMQCPICQAPWPLGADTPALDNVFFESLQRRLSVYRQIVDAQAVCTRCKESADFWCFECEQLLCAKCFEAHQWFLKHEARPLAELRNQSVREFLDGTRKTNNIFCSNPNHRTPTLTSIYCRGCSKPLCCSCALLDSSHSELKCDISAEIQQRQEELDAMTQALQEQDSAFGAVHAQMHAAVGQLGRARAETEELIRERVRQVVAHVRAQERELLEAVDARYQRDYEEMASRLGRLDAVLQRIRTGSALVQRMKCYASDQEVLDMHGFLRQALCRLRQEEPQSLQAAVRTDGFDEFKVRLQDLSSCITQGKDAAVSKKASPEAASTPRDPIDVDLPEEAERVKAQVQALGLAEAQPMAVVQSVPGAHPVPVYAFSIKGPSYGEDVSNTTTAQKRKCSQTQCPRKVIKMESEEGKEARLARSSPEQPRPSTSKAVSPPHLDGPPSPRSPVIGSEVFLPNSNHVASGAGEAEERVVVISSSEDSDAENSSSRELDDSSSESSDLQLEGPSTLRVLDENLADPQAEDRPLVFFDLKIDNESGFSWGYPHPFLI
chain 2: B1 chain 1

This experiment covers variants of B1. The experiment in a line: mammalian two-hybrid assay. To be noted: with full-length PML isoform IV, parent: 38, read off a plot, scale: fold change.
In the case of chain 1 W157E, the response stood at 3.2.

For chain 1 I122P V123P, the response came out at 21.

Regarding chain 1 F158E, the response was found to be 2.8.
